Laboratory results from article PMC8402755.

Target: HIV-1 RT (HIV-1, UniProt P03366;P03366 600-1159;600-1039)
Assay: off-rate (dissociation with trap); dissociates much more slowly than from dsDNA N1
Settings: protein: recombinant; copies: 1;1; label: 5'-32P on the 33 nt DNA primer; 33 nt DNA primer on 50 nt RNA template; template 5' overhang 15 nt, 3' overhang 2 nt

B1: D33-R50 RNA/DNA hybrid primer-template (DNA:RNA)
DNA: TCCCCGGGTACCGAGCTCGAATTCGCCCTATAG
RNA: UUGUAAUACGACUCACUAUAGGGCGAAUUCGAGCUCGGUACCCGGGGAUC
B1: binds.
